7 substances from patent US20190284243A1, “BINDING PEPTIDES” (University of Copenhagen, priority 2016, published 2019) can be followed below.

Bridge positions count the residues as written; N and C are the ends. Square brackets hold non-standard residues; d marks the D form. Ends that are not written are not given here. dPra = C#CC[C@@H](N)C(=O)O

Assay [1] addresses Il2 (Homo sapiens, UniProt P60568). Nature of the assay: Binding of β-bodies with the target compound (Table 1), Il2. To be noted: Purpose Il2; tested for binding with the target compound.
The target in assay [2] is Interleukin 2 (Homo sapiens, UniProt P60568). The experiment in a line: Sandwich binding assay on PEGA beads, IL2 model. How it is done: For sandwich assays β-bodies identified as described in Examples 1 and 2 were synthesized by standard Fmoc-based solid phase peptide synthesis on biocompatible PEGA-beads (e.g. PEGA1900 which has a porosity allowing penetration of proteins up to 70 kDa). PEGA beads are available from Sigma Aldrich.
The sandwich binding assay was performed as follows: four beads with ligand C prepared as described above were added to 50 μL MilliQ water in a microtiter well containing 100 nM of the peptide D. The well was imaged with an ICX73 fluorescence microscope (Olympus) using a ROX filter cube.
The intensity of the fluorescence is a measure of the concentration of IL2 and the affinity of the interaction. The result obtained after 3 min. incubation is shown in FIG. 10 and after 20 min. incubation in FIG. 1D.

Assay [3] concerns the target T1, Papain (Carica papaya, UniProt P00784).
T1 sequence (P00784 134-345): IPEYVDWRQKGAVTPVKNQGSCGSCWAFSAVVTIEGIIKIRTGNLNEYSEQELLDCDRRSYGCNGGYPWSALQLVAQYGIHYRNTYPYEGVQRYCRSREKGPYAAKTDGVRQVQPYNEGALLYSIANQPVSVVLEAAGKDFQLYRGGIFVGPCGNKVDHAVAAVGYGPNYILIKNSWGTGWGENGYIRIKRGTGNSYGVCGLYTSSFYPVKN
Nature of the assay: Binding of β-bodies with the target compound (Table 1), Papain. To be noted: Purpose Papain; tested for binding with the target compound.

Assay [4] has as its target Il10 (Homo sapiens, UniProt P22301). The experiment in a line: Binding of β-bodies with the target compound (Table 1), Il10. To be noted: Purpose Il10; tested for binding with the target compound.
In assay [5] the test system is GFP. To be noted: GFP 60 nM, both bead types incubated at the same time. Here is the method: GFP (60 nM) was incubated with different β-body beads at the same time, a first type of β-body beads specific for GFP (β-body SEQ ID NO: 1;
[…]) and a second type of β-body beads specific for IL1 (β-body SEQ ID NO: 5).

Assay [6] relates to Il1. The experiment in a line: Selectivity assay GFP vs. IL1: beads incubated with ROX-IL1. In kind it is binding. To be noted: ROX-IL1 100 nM, both bead types incubated at the same time. The text has this: The same experiment was repeated with IL1.
Assay [7] deals with eGFP (Aequorea victoria, UniProt P42212, F64L/H231L/S65T). To be noted: Purpose eGFP; tested for binding with the target compound.
Assay [8] concerns HRMVRG-PEGA1900. Nature of the assay: Binding to hexapeptide beads, green fluorescence associated with the beads. To be noted: protein overexpressed in E. coli. From the text: The fusion protein as well as EGFP was overexpressed in E. coli and purified from the cell lysate using a PEGA solid support with the hexapeptide partner, […] NO: 4), attached.
Setting [9] is: ligand 3 beads + 100 nM ligand 4, Interleukin 2 50 nM, 3 and 20 min.
Setting [10] is: ligand 3 beads + 100 nM ligand 4, without IL2 (interaction between the two β-bodies).

Chain of Interleukin 2 (P60568 21-153, species assumed): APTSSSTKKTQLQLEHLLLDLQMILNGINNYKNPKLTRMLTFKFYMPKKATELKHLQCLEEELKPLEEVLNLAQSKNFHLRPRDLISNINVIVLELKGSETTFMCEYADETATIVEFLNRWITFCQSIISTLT
Chain of Il2 (P60568 21-153, species assumed): as above
Chain of Il10 (P22301 19-178, species assumed): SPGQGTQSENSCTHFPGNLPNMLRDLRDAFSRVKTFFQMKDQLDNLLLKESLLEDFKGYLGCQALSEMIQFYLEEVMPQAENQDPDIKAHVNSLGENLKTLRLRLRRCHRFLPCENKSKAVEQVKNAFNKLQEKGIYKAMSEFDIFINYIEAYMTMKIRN

Consider “TRTLTYTEPGITQTKTEA (Designed peptide) [SEQ ID NO: 14]”, for which the Binding entry in assay [1] is “High”. In addition, the “ROX fluorescence accumulation in the beads” value in assay [2] (setting [9]) was “positive signal”; in assay [2] (ligand 3 beads + 100 nM ligand 4, Interleukin 2 50 nM, 3 and 20 min, listed as D) it was “accumulation of significant ROX fluorescence”; in assay [2] (setting [10]) it was “no signal”; in assay [2] (ligand 3 beads + 100 nM ligand 4, without IL2 (interaction between the two β-bodies), listed as D) it was “No fluorescence accumulation over background”.
For “IHV-abu(N3)-VTTRTMPGHPIAGADA-pra-TG (IHV[dAbu(N3)]VTTRTMPGHPIAGADA[dPra]TG; triazole 4-21 (inferred); also: X4 listed as D-3-azido-2-aminobutanoic acid, mods say azidohomoalanine) [SEQ ID NO: 49]”, the Binding result in assay [3] is listed as “Medium”.
On to “ATNTLTMTWPGRTNTDTFTW (Designed peptide) [SEQ ID NO: 20]”, for which the Binding result in assay [4] is reported as “High”.
For the substance “TETKTVTITRPKMTWTFTHTVTG (Designed peptide; PEPTIDE (1)..(23) GFP) [SEQ ID NO: 1]”, in assay [5], the “Binding of β-body beads to GFP” value is reported as “underwent binding”. Moreover, the “Binding of β-body beads to IL1” value in assay [6] was “only β-body beads specific for IL1 underwent binding”. In addition, in assay [7], the Binding result is on record as “High”.
As to “NTVTNTMTRPGVTETVTQTD (Designed peptide) [SEQ ID NO: 15]”, the Binding entry in assay [1] is “High”. Besides, the “ROX fluorescence accumulation in the beads” value was “positive signal” in assay [2] (setting [9]); “accumulation of significant ROX fluorescence” in assay [2] (ligand 3 beads + 100 nM ligand 4, Interleukin 2 50 nM, 3 and 20 min, listed as C); “no signal” in assay [2] (setting [10]); “No fluorescence accumulation over background” in assay [2] (ligand 3 beads + 100 nM ligand 4, without IL2 (interaction between the two β-bodies), listed as C).
With “EGFP: Enhanced Green Fluorescent Protein, overexpressed in E. coli; control without β-body”, the “Binding to HRMVRG-PEGA1900 (green fluorescence associated with the beads)” value in assay [8] was “does not”.
As for “TKTRTYTIPGERYTDTWA (Designed peptide) [SEQ ID NO: 21]”, the Binding entry in assay [4] is recorded as “High”.
